Patent publication US12365738B2, “Method of treating an interleukin-11-associated or -mediated fibrotic disease or condition by administering an anti-interleukin-11 receptor subunit alpha (IL-11RA) antibody” (Lassen Therapeutics, Inc., priority 2021, dated 2025)
Where a chain is given by its changes, count along the chain named. Numbers in names are those of the source. Values belong to the molecule of their own block, whether it stands above or below them.

How the values were obtained:
[1] = system: type VI collagen formation (PRO-C6) in fibrotic human PCLS; assay: Fibrotic human precision-cut lung slice (PCLS) model, PRO-C6 ECM remodeling biomarker; format: cell-based; conditions: 48 hours; pooled data, all donors and regions; mAb5 0.3, 3.0, 30 μg/mL; nintedanib 1 μM; isotype control 30 μg/mL
Experimental: Tissue slices were prepared from the subpleural and central region of the fibrotic lung from two human end-stage donors with pulmonary fibrosis (IPF and secondary fibrosis) (see, for example, Hess et al., Toxicol In Vitro. 32:347-61, 2016). For both donors, lung tissue samples from two different regional areas (subpleural and central) were used to generate tissue cores used for PCLS. Adjacent cores were used to achieve serial PCLS for the analysis of one treatment as compared to medium treated PCLS from the same cores. This enables the comparison of densely packed fibrotic areas with fibrotic foci with less affected areas. To ensure the fibrotic status, clinical/demographic information for each patient is provided.
Each treatment was tested with three replicates for each lung region and for each donor.
Preparation and incubation of precision-cut lung slices. Lung lobes were canuled and filled with 37° C. warm 2% low-melting agarose/medium solution. Filled lobes were cooled on ice to polymerise agarose. Tissue cores with a diameter of 8 mm were prepared and cut into approximately 300 μm thick slices using a microtome (Krumdieck tissue slicer, Alabama Research and Development, Muniford, AL, USA or Vibratome OTS-5000, Science Services GmbH, Munich) in Earle's Balanced Salts Solution (EBSS). Tissue slices were incubated in Dulbecco's modified Eagle's medium/nutrient mixture F-12 Ham (DMEM) with L-glutamine and 15 mM HEPES without phenol red. Tissue slices were transferred into petri dishes and washed with DMEM for 2 hours. Medium was changed four times every 30 minutes in order to remove cell debris.
Two PCLS per well were left over night in 500 μL DMEM in 24-well plates for a final washing step. Next day, PCLS were treated with experimental treatments or controls (see Table E5) in 250 μl DMEM/F-12 culture medium for 48 hours under normal cell culture conditions (37° C., 5% CO2). Medium contained 100 units/mL penicillin and 100 μg/mL streptomycin and was not supplemented with fetal calf serum. […]
Extracellular matrix remodeling evaluation. Biomarkers that reflect ECM remodeling were assessed in supernatant by Nordic Bioscience using the following competitive ELISA: PRO-C6 (C-terminal of type VI collagen C5 domain released as type VI collagen is incorporated into the matrix; measured on mesoscale platform [hsPRO-C6]): Reflects type VI collagen formation. […]
Statistics. […] Pooled data are presented as percentage of the “no treatment” control, calculated for individual regions and donors. Statistical significant differences were evaluated on pooled data by Kruskal-Wallis with Dunn's multiple comparisons test, comparing to the “no treatment” control. […]

[2] = biological target: T1, hIL-11Rα (Homo sapiens, UniProt Q14626); assay: Kinetic binding analysis by biolayer interferometry (protein G biosensors, Octet RED96e)
T1 sequence (Q14626 23-422): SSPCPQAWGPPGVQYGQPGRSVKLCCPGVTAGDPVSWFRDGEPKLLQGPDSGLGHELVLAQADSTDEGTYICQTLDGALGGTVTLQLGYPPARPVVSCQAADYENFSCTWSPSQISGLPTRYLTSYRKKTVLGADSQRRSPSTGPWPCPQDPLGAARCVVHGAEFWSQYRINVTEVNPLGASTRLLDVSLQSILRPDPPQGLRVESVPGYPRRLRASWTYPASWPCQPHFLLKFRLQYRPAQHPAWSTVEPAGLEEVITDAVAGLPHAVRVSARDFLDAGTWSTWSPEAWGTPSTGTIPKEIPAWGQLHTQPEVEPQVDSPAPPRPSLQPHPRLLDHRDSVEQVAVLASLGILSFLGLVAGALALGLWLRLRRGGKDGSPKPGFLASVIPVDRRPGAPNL
Experimental: Association was carried out in the presence of a 2-fold dilution series of hIL-11Rα and was allowed to proceed for 120 seconds; dissociation was measured for 300 to 1200 seconds.

[3] = system: IL-11 signaling (STAT3 Reporter (Luciferase)-HEK293 cell line); assay: Cell-based STAT3 reporter (luciferase) HEK293 assay for inhibiting IL-11 signaling; parameters: species or system human
Experimental: Further testing of the lead mAbs was carried out using a cell-based reporter assay. IL-11 is reported to signal through the STAT3 and ERK pathways. Therefore, a STAT3 reporter cell line in which firefly luciferase gene expression is driven by STAT3 response elements located upstream of a minimal TATA promoter was selected to analyze mAb functional activity. In these cells, IL-11 can activate the endogenous STAT3 allowing it to bind to the STAT3 response elements, inducing transcription of the luciferase reporter gene and resulting in readily detectable luciferase expression. Antibodies to IL-11R which block IL-11 signaling should inhibit expression of IL-11 driven luciferase in these cells.
The STAT3 Reporter (Luciferase)—HEK293 cell line (BPS Bioscience, catalog #79800-P) was grown, passaged, and assayed as per manufacturer's protocols. Cells were added at 25,000 cells per well in a 96-well microtiter dish and incubated at 37° C. for 30-45 min. in 5% CO2 humidified air. Anti-IL-11R mAbs were added as a 3-fold dilution series in duplicate columns or rows, and plates were returned to the incubator for an additional 1 h at 37° C. after which 40 ng/mL IL-11 was added to each well to initiate the signal transduction cascade and luciferase production. Plates were incubated for 18-24 hours at 37° C. and luciferase was detected using a One-Step Luciferase Assay System (BPS Bioscience, cat. no. 60690-1) as per manufacturer's instructions.

Molecule: COC(=O)c1ccc2c(c1)NC(=O)/C2=C(\Nc1ccc(N(C)C(=O)CN2CCN(C)CC2)cc1)c1ccccc1 [nintedanib, Nintedanib, reference compound]
- median levels of PRO-C6 compared to the no treatment (media) control [1]: decreased

B3: mAb6: anti-IL-11Rα antibody, human IgG4 (S228P), kappa; VH SEQ ID NO: 203, VL SEQ ID NO: 204 (antibody, V domains shown)
VH: EVQLLESGGGLVQPGGSLRLSCAASGFTFSWYSMTWVRQAPGKGLEWVSSIVPYGDLTQYADSVKGRFTISRDNSKNTLYLQMNSLRAEDTAVYYCAKGPGWGSFDLWGRGTLVTVSS
VL: DIQMTQSPSSLSASVGDRVTITCQASQDINNYLNWYQQKPGKAPKLLIYDASNLQTGVPSRFSGSGSGTDFTFTISSLQPEDIATYYCQQHEFQSPTFGPGTKVDIK
modifications: human IgG4 S228P and kappa constant regions; mAb6 VH Chain; mAb6 VL Chain
- ka [2]: 800000 M⁻¹ s⁻¹
- kd [2]: <1e-07 s⁻¹
- potency at inhibiting IL-11 signaling relative to TS7 / 8E2 (in words) [3]: variable

B5: mAb9: anti-IL-11Rα antibody, human IgG4 (S228P), kappa; VH SEQ ID NO: 209, VL SEQ ID NO: 210 (antibody, V domains shown)
VH: B3 VH with S50G
VL: B3 VL with F93S
modifications: human IgG4 S228P and kappa constant regions; mAb9 VH Chain; mAb9 VL Chain
- ka [2]: 62200 M⁻¹ s⁻¹
- kd [2]: <1e-07 s⁻¹
- potency at inhibiting IL-11 signaling relative to TS7 / 8E2 (in words) [3]: more potent at inhibiting IL-11 signaling than either of TS7 or 8E2

B6: mAb10: anti-IL-11Rα antibody, human IgG4 (S228P), kappa; VH SEQ ID NO: 211, VL SEQ ID NO: 212 (antibody, V domains shown)
VH: B3 VH with P53A
VL: B3 VL with F93S
modifications: IgG4 S228P kappa constant regions; mAb10 VH Chain; mAb10 VL Chain
- ka [2]: 840000 M⁻¹ s⁻¹
- kd [2]: 0.000416 s⁻¹
- potency at inhibiting IL-11 signaling relative to TS7 / 8E2 (in words) [3]: less potent than TS7

B8: mAb7: anti-IL-11Rα antibody, human IgG4 (S228P), kappa; VH SEQ ID NO: 205, VL SEQ ID NO: 206 (antibody, V domains shown)
VH: B3 VH with W31N, S33A, T35S
VL: B3 VL with F93S
modifications: human IgG4 S228P and kappa constant regions; mAb7 VH Chain; mAb7 VL Chain
- ka [2]: 63500 M⁻¹ s⁻¹
- kd [2]: <1e-07 s⁻¹
- potency at inhibiting IL-11 signaling relative to TS7 / 8E2 (in words) [3]: less potent than TS7

B10: mAb8: anti-IL-11Rα antibody, human IgG4 (S228P), kappa; VH SEQ ID NO: 207, VL SEQ ID NO: 208 (antibody, V domains shown)
VH: B3 VH with W31S, S33A, T35S
VL: B3 VL with F93S
modifications: human IgG4 S228P and kappa constant regions; mAb8 VH Chain; mAb8 VL Chain
- ka [2]: 65100 M⁻¹ s⁻¹
- kd [2]: <1e-07 s⁻¹
- potency at inhibiting IL-11 signaling relative to TS7 / 8E2 (in words) [3]: less potent than TS7

Now from value to molecule, other results behind:

- ka [2]: 33700 M⁻¹ s⁻¹
- kd [2]: <1e-07 s⁻¹
B1: mAb14: anti-IL-11Rα antibody, human IgG4 (S228P), kappa; VH SEQ ID NO: 219, VL SEQ ID NO: 220 (antibody, V domains shown)
VH: B3 VH with D62E
VL: B3 VL with F93S
modifications: IgG4 S228P kappa constant regions; mAb14 VH Chain; mAb14 VL Chain
- potency at inhibiting IL-11 signaling relative to TS7 / 8E2 (in words) [3]: comparable in potency to TS7

- ka [2]: 32900 M⁻¹ s⁻¹
- kd [2]: 0.0181 s⁻¹
B2: mAb11: anti-IL-11Rα antibody, human IgG4 (S228P), kappa; VH SEQ ID NO: 213, VL SEQ ID NO: 214 (antibody, V domains shown)
VH: B3 VH with P53D
VL: B3 VL with F93S
modifications: IgG4 S228P kappa constant regions; mAb11 VH Chain; mAb11 VL Chain
- potency at inhibiting IL-11 signaling relative to TS7 / 8E2 (in words) [3]: less potent than TS7

- ka [2]: 66700 M⁻¹ s⁻¹
- kd [2]: <1e-07 s⁻¹
B4: mAb13: anti-IL-11Rα antibody, human IgG4 (S228P), kappa; VH SEQ ID NO: 217, VL SEQ ID NO: 218 (antibody, V domains shown)
VH: B3 VH with G99P, P100E, G101D, S104R
VL: B3 VL with F93S
modifications: IgG4 S228P kappa constant regions; mAb13 VH Chain; mAb13 VL Chain
- potency at inhibiting IL-11 signaling relative to TS7 / 8E2 (in words) [3]: more potent at inhibiting IL-11 signaling than either of TS7 or 8E2

- ka [2]: 58100 M⁻¹ s⁻¹
- kd [2]: <1e-07 s⁻¹
B7: mAb12: anti-IL-11Rα antibody, human IgG4 (S228P), kappa; VH SEQ ID NO: 215, VL SEQ ID NO: 216 (antibody, V domains shown)
VH: B3 VH with G103Y
VL: B3 VL with F93S
modifications: IgG4 S228P kappa constant regions; mAb12 VH Chain; mAb12 VL Chain
- potency at inhibiting IL-11 signaling relative to TS7 / 8E2 (in words) [3]: comparable in potency to TS7

- ka [2]: 84000 M⁻¹ s⁻¹
- kd [2]: <1e-07 s⁻¹
B9: mAb15: anti-IL-11Rα antibody, human IgG4 (S228P), kappa; VH SEQ ID NO: 221, VL SEQ ID NO: 222 (antibody, V domains shown)
VH: B3 VH
VL: B3 VL with F93T, S95T
modifications: IgG4 S228P kappa constant regions; mAb15 VH Chain; mAb15 VL Chain
- potency at inhibiting IL-11 signaling relative to TS7 / 8E2 (in words) [3]: comparable in potency to TS7
